# Results as given in patent US20110086806A1 (published 2011).
# T1: recombinant human IL-23R/Fc chimera (R&D Systems) (human, UniProt Q5VWK5 24-355)
# T1 construct: Bought; also called rhIL23RFc
# T1 sequence (looked up): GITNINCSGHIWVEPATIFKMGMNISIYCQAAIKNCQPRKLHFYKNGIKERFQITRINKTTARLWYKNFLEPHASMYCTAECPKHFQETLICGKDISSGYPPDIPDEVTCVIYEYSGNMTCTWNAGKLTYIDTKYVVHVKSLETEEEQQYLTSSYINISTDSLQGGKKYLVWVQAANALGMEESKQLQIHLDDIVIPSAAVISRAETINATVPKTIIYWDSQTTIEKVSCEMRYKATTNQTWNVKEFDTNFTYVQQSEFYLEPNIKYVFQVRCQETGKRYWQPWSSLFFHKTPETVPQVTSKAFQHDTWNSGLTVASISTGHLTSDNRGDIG
# T2: recombinant human IL-12Rβ2/Fc fusion protein (R&D Systems) (human, UniProt Q99665 24-622, limits assumed)
# T2 construct: Bought; also called Il12Rb2
# T2 sequence: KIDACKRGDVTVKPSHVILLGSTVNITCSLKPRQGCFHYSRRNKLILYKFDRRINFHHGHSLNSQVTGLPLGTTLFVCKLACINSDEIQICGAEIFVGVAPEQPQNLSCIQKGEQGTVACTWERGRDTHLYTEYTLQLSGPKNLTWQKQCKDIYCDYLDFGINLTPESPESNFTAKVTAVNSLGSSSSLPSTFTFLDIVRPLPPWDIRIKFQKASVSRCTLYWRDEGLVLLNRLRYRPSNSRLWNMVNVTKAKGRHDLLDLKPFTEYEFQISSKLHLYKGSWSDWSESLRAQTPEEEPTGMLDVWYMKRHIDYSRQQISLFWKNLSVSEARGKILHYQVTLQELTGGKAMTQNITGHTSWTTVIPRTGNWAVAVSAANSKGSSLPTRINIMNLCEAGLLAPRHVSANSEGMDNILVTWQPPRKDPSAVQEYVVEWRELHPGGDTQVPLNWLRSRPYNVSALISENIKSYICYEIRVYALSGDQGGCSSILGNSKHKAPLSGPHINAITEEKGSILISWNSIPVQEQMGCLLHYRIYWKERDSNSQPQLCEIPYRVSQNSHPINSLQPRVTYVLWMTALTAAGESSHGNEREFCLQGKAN
# Key:
# [1] = target: T1, recombinant human IL-23R/Fc chimera …; assay: SPR
# Method in brief: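 Recombinant human IL-23R/Fc captured on anti-human IgG Fc CM5 surface (<200 RU); ATRIMER complexes at 1-500 nM injected at 30 μl/min, 3 min association and 5 min dissociation. Kinetic constants fitted from double-referenced sensorgrams.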
# [2] = target: T1, recombinant human IL-23R/Fc chimera …; assay: competition ELISA vs IL-23
# [3] = target: T3, recombinant human IL-12Rβ1/Fc fusion protein (R&D Systems) (human, UniProt P42701 24-540, limits assumed); assay: SPR
# T3 construct: Bought; also called Il12Rb1
# Protocol: (§1) A Biacore 3000 biosensor (GE Healthcare) was used to evaluate the interaction of human IL-12Rβ1/Fc or IL-12Rβ2/Fc with IL-23R binding ATRIMER™ complexes. Immobilization of an anti-human IgG Fc antibody (GE Healthcare) to the CM5 chip (GE Healthcare) was performed using standard amine coupling chemistry, and this modified surface was used to capture recombinant human IL-12Rβ1/Fc or IL-12Rβ2/Fc fusion protein (R&D Systems). A low-density receptor surface, less than 200 RU, was used for all of the analyses. ATRIMER™ complex dilutions (100 nM) were injected over the IL-12R surface at 30 μl/min. Data collection was 3 minutes for the association and 5 minutes for dissociation. The anti-human IgG surface was regenerated with a 30s pulse of 3M magnesium chloride. All sensorgrams were double-referenced against an anti-human IgG Fc antibody surface as well as buffer injections.
# [4] = target: T2, recombinant human IL-12Rβ2/Fc fusion …; assay: SPR
# Protocol: as §1
Binder,Ka [1],Kd [1],koff [1],kon [1],Ratio IC50 to 056-53.H4E IC50 [2],binding result [3],binding result [4]
"101-51-1A4 ATRIMER complex (designed binder, Forms a homotrimer through the tetranectin coiled coil; one protomer is given., not shown: C-terminal tag: His/Myc (pANA4) or HA-StrepII (pANA10)) EPPTQKPKKIVNAKKDVVNTKMFEELKSRLDTLAQEVALLKEQQALQTVCLKGTKVHMKCFLAFTQTKTFHEASEDCISRGGTLSTPQTGSENDALYEYLRQSVGNEAEIWLGLNGSALTNTWVDMTGARIAYKNWERPALVQPRGGFGVFGENCAVLSGAANGKWFDKRCRDQLPYICQFGIV",2.58e+09 M⁻¹,0.388 nM,0.000395 s⁻¹,1.02e+06 M⁻¹ s⁻¹,1,no binding (tested: 100 nM),no binding (tested: 100 nM)
"101-113-6C108 ATRIMER complex (designed binder, Forms a homotrimer through the tetranectin coiled coil; one protomer is given., not shown: C-terminal tag: His/Myc (pANA4) or HA-StrepII (pANA10)) EPPTQKPKKIVNAKKDVVNTKMFEELKSRLDTLAQEVALLKEQQALQTVCLKGTKVHMKCFLAFTQTKTFHEASEDCISRGGTLSTPQTGSENDALYEYLRQSVGNEAEIWLGLNGSALTNTWVDMTGARIAYKNWEPPPPHHPMGGFGVFGENCAVLSGAANGKWFDKRCRDQLPYICQFGIV",1.63e+09 M⁻¹,0.613 nM,0.000382 s⁻¹,623000 M⁻¹ s⁻¹,0.9,no binding (tested: 100 nM),no binding (tested: 100 nM)
"101-51-1A7 ATRIMER complex (designed binder, Forms a homotrimer through the tetranectin coiled coil; one protomer is given., not shown: C-terminal tag: His/Myc (pANA4) or HA-StrepII (pANA10)) EPPTQKPKKIVNAKKDVVNTKMFEELKSRLDTLAQEVALLKEQQALQTVCLKGTKVHMKCFLAFTQTKTFHEASEDCISRGGTLSTPQTGSENDALYEYLRQSVGNEAEIWLGLNGSALTNTWVDMTGARIAYKNWERPPLYQPGGGWGVFGENCAVLSGAANGKWFDKRCRDQLPYICQFGIV",2.24e+09 M⁻¹,0.447 nM,0.000187 s⁻¹,419000 M⁻¹ s⁻¹,1,no binding (tested: 100 nM),no binding (tested: 100 nM)
101-54-4B6 ATRIMER complex (designed binder) EPPTQKPKKIVNAKKDVVNTKMFEELKSRLDTLAQEVALLKEQQALQTVCLKGTKVHMKCFLAFTQTKTFHEASEDCISRGGTLSTPQTGSENDALYEYLRQSVGNEAEIWLGLNGSALTNTWVDMTGARIAYKNWEPPGPHHPMGGFGVFGENCAVLSGAANGKWFDKRCRDQLPYICQFGIV,1.76e+09 M⁻¹,0.569 nM,0.00039 s⁻¹,687000 M⁻¹ s⁻¹,0.3,no binding (tested: 100 nM),no binding (tested: 100 nM)

# Second part, the binder after the results:
Ka [1],Kd [1],koff [1],kon [1],Ratio IC50 to 056-53.H4E IC50 [2],binding result [3],binding result [4],Binder
2.14e+09 M⁻¹,0.467 nM,0.000344 s⁻¹,737000 M⁻¹ s⁻¹,1.6,no binding (tested: 100 nM),no binding (tested: 100 nM),105-08-1A8 ATRIMER complex (designed binder) EPPTQKPKKIVNAKKDVVNTKMFEELKSRLDTLAQEVALLKEQQALQTVCLKGTKVHMKCFLAFTQTKTFHEASEDCISRGGTLSTPQTGSENDALYEYLRQSVGNEAEIWLGLNGSPRTNTWVDMTGARIAYKNWETEITAQPDGGFGVFGENCAVLSGAANGKWFDKRCRDQLPYICQFGIV
–,–,–,–,–,no binding (tested: 100 nM),no binding (tested: 100 nM),H4E E137A ATRIMER complex (designed binder) EPPTQKPKKIVNAKKDVVNTKMFEELKSRLDTLAQEVALLKEQQALQTVCLKGTKVHMKCFLAFTQTKTFHEASEDCISRGGTLSTPQTGSENDALYEYLRQSVGNEAEIWLGLNGSALTNTWVDMTGARIAYKNWATEITAQPDGGFGVFGENCAVLSGAANGKWFDKRCRDQLPYICQFGIV
